Experiment: soluble on expression in E. coli; label from the status in PepcDB or PDB records

Soluble on expression in E. coli, soluble:
MPPADGTSQWLRKTVDSAAVILFSKTTCPYCKKVKDVLAEAKIKHATIELDQLSNGSAIQKCLASFSKIETVPQMFVRGKFIGDSQTVLKYYSNDELAGIVNESKYDYDLIVIGGGSGGLAAGKEAAKYGAKTAVLDYVEPTPIGTTWGLGGTCVNVGCIPKKLMHQAGLLSHALEDAEHFGWSLDRSKISHNWSTMVEGVQSHIGSLNWGYKVALRDNQVTYLNAKGRLISPHEVQITDKNQKVSTITGNKIILATGERPKYPEIPGAVEYGITSDDLFSLPYFPGKTLVIGASYVALECAGFLASLGGDVTVMVRSILLRGFDQQMAEKVGDYMENHGVKFAKLCVPDEIKQLKVVDTENNKPGLLLVKGHYTDGKKFEEEFETVIFAVGREPQLSKVLCETVGVKLDKNGRVVCTDDEQTTVSNVYAIGDINAGKPQLTPVAIQAGRYLARRLFAGATELTDYSNVATTVFTPLEYGACGLSEEDAIEKYGDKDIEVYHSNFKPLEWTVAHREDNVCYMKLVCRKSDNMRVLGLHVLGPNAGEITQGYAVAIKMGATKADFDRTIGIHPTCSETFTTLHVTKKSGVSPIVSGCCG, MPPKQQLSKAAKAAAALAGGKKSKKKWSKKSMKDRAQHAVILDQEKYDRILKEVPTYRYVSVSVLVDRLKIGGSLARIALRHLEKEGIIKPISKHSKQAIYTRATASE, MPPLRQFLNRLLALTIRMQNVIFERFELLLSQQIETAIANGIFEAGVETLRAERFTIESCESVYTHPDTGSVTNYLKVEQVQRNNIRTAVEMLEFAAKYQGQLMVNQKSSNAAVSIPTHSIFDCDGGVVPRVLLVRPQKETRVPVEQLESSTWQQVSAEEFVTAWSREVDELPRFTTDYLHLVTGILLPIWKILPQKNSRVFRLQTSDGQKILGRVVHASDIQTVTEQLGLKNKLEHHHHHH, MPREFKSFGSTEKSLLSKGHGEPSYSEIYAEPENFLEIEVHNPKTHIPNGMDSKGMFTDYEIICRTNLPSFHKRVSKVRRRYSDFEFFRKCLIKEISMLNHPKVMVPHLPGKILLSNRFSNEVIEERRQGLNTWMQSVAGHPLLQSGSKVLVRFIEAEKFVG

Soluble on expression in E. coli, not soluble:
MPNDLPLLPPKNQHKHLDKTMISLPSDFRHLAHVGPMGSSEIENLRTSDNVIDTVNESSYYIRPSSSNSTLRSQRKEKDRVGLDDAFPSASKSEEEVEVVRGYENQPTSHQYINIAPPRPSKKNYKAPAPPTPPPQNSKPNLIFNAQDDEEETSEISEQPVVFRSISHTSNISTHIAPPPKIQTADRIVAPKPNSLVIERPGDLGGAFSFGLDDCIPIVKSTPPLNTLSPLHRPLAIPKNQEETPILSPASPPDDSNYMSTIRSTSVQGRKILDELDDWLDDLDDLDRDQLSTISTDESGYPTLALEKDRAFMKHLVEKYELGVAPETIRLRKKKGPAPKAPSLPPDLSSPTFQAPGFIPAFSARPVSMPPNRPPPSYEAPSFDAPEAPGTVLINGRALTKQNALDLRSSDESGVPPAIARFLYDKRIKSATMPMSIGRMTSSSGNTDVSTTSSRSNADTVSSILSTVGEDDDVEVLKRDREVEEEFVPPVPKPRSRKTVSTEPLKEEEEENVEEEIKGENVIGEEFQVVGDTKINDEQEDRVEATKDKINDAFIMLPPPSAAAMIPSDSESEDDDNFIITRF, MPPLPLIGMLLGTASTMIKSSSGAAAHASGASSAPSGDAAPTAPFAQTLKRNVQTQRQTNAGAGAGAPNAGNATNAATSGTANASTTSSASEPATTNAGNTKASGKPDDQDDDKNATQSASADAAAALAAAASLQAQLQARPDAQAAQAAAPQAGASDAAHPPTTLATNTAAAGDADTSALAGAQQPVGEALNAALSKLTGAGPAGAAATQRAQPAGRNDGAPTPLAANGPFDKMLAGAKAPAAPATLTDASGTNPAVSTAAQPAASGAIAALQDAADSARATLAASSAPAALQQAAPAALAANANAAAATAAPSLAPPVGTPDWTEALSQKVVFLSNAHQQSAELTLNPPDLGPLQVVLRVAENHAHALFVSQHAQVRDAVEAALPKLREAMEAGGLGLGSASVSDGGFASAQQQQTPQRQSSDGSAARRASGAPTADAALGEVSAVSSGGVTRRSVGMVDTFA, MPPMRSKATQWLLSVWGLMDPLYYACSRLEYVGGKENGCRSIFRVRLLRYKGETIHLSDGTTIAANDWLLKIHLHNVRLLCELMQYRSDIQKGRYIFEQVKAGLPHVAHHLYHHEQSSSIKGIIGVTMLNKGCERLGFDVIDIANSFYRWFKMASHWPMMTVAQHRLVPLVRPPKYLVMSKEKLFSLYGCHLIH, MPPNANSVGGPKKKNKKNHQRPQQQHQQTQPQPLPEEEQPENPIKKDPKPEVLEEVVEKNREEDKEKVEETVAPTIEKEKNISGDLLDFSSSDKSSLSSRPDSPEEDEDAVPVVNRTTTSPPTSPPSQTAVEQDSLQAEEMLVDMSLDDAPAAPPRKPHQRSAPPPIPSMNTIMTKPRTNSVSYIKGQVVRQSAVEQQTLANQVVDLVAMGMSKGQTQSSQITAEKAEWVQLTSVEKAGEPNERLEVLIVGLCRGYQIWTMSQSGEFEEVLSERQGPVRALKVLPNNLKLRGKKDSFADSRPLIAMVDASSHHPDRQYCSVTIISLLTGREVHKIKFEEPVCAVNVSDQFLVVSLANMAYAYDILTFNEVRTIRTAPSCENSPPALSLSCQLLAYADTSLDLNLQSSGGLAAEVEATSSEKYTDHIYTAMSYFSRSVKTISESVGAGSGSSTKANQPQGVITVLNLAVSGEDESDGVMCHYVAHVDPISYIAFSPDQRLVLSADANANVFNIFLLMPHATSSSLAAVQHLYKLNRGSTPAKVVSTAFSEDCRWLAITTNHATTHVFAVCPFGGKPNQRTHGDTFVNKESRFHRSAGLTDAADVTASIGPSKHRAMADSCSYTKEHPIAVNSPTLAKTNGNSRVGPFPPPLLLVATEKIKDSRYTKEDLSAWAADMTSFSYPAAQASSSPAVAARRRLEVSRMSVMFRMKSYNSTTSTKTAKTTKMLMSMSLVIAKVDPAQGVIVTQHDIKSLRKEGETNMEASPQISVAPVGGWILQRTKNNADMHAPMPSASPLMAFATVETVPAKRIGDEDVWTPHVETRTYLPPHRWIWQGPQFELFEYREDDQPSLMSPGNKGSNASFKSIPVLVGSEAVNITMKTIPADATRIECGSYTSANSYSIDQGSDQPVIGGYSSATNGDYIASIADAMRDISSDDDSTKKKSPKNDDLIEEFFDTESSTPFARNGSGSSSSTGATGGKSLKKKKTPPASAPLPTSSTKSSQKDKKVQNGRERSKDSDDFGTFDMDDI, MPQNQSDRLKPKGSGDGPLGTALGRGAGVASDLWRRIRTRALSAIGPEAEAQLYEVHKEWLGDLSGKKVLEIGGGSPLSPWLADTARTYHAVSADPAELEALKVRLGEGRTARLIEADPMSGAFRETGYDVIYLHSVLHRMADRGPFLDRLLKKLAIEGRVVTTDPADGGALTRLVRTIDRPFRAESLPDHPVTEELKAELAERFYLINCVAPFRLGKAALVLGALHPELGRRVSERLIAADLKDRAAFNRLNASLQVSFLLGAPD, MPRHFHVALLILVLCGAERARGALRVQLQDYDKNSWRSVLRRVAPEWVLEEFADVKVLSAAENGFQLPKSGLAQIEINKSGRKTVTANTPTDALNAINTYLRTECLSQVSWSNSSFSSGCRKRTSDFINFESKQIRYFGNMCTFSYSFAWWEWPQWERFIDWIALNGFNTVLMPLGQEIIWRDIFMGLGVQRDELDSYFTSQAYLAWHRMGNLKAYGGGLSDAQMLNDHNLAKRIIDRLLELGITPILPTFAGFVPDHLETLFPASKFNRLPRWNNFTSETSCMLSVSPFDPLFQKIGSTFLRHQKKMFGGDVTNMYSADPFNEILPSESAKFDAKFVKQTAQAIMNSCKKVDKNCVWVLQSWSFTYDQWPAWAIKSFLSAIPVGNLLILDLYAEVVPAWQMTSSFQGHHFVWCLLHNFGGSRELRGNLQKIDKGYQLALMKAGSNLVGAGLSMEAIDQNYVVYQFMIDRMWSPEPLPLNNWLKAYSESRYSADFKVAQKFWTLLAGTFYNQPEKWGTPRFSVFLYHRPGFGRKIEYWFPVEETFSRFRELLPALVHVLGEHPLFREDLNDVMREMTQFEMGNEAALSMSEAFLMEDKQQVGASCEMLMEMFQKLESYSNRDVRQWIENAKSIAPTSEERQVFPVTAGDILTVWGPTGQNLDYAHREWAGLMSGYYGRRWQYFCDWILEHDDFNHTEFSISVFRDVERPFSISNI, MPRKLLEERSTGSATKWLREEEKIEKKSRADQLKIKFMQTRDNSDINSIFSEPPSEFSVLCDDDDCDKGSVVSSTLTTSIRKTFSSFRFDENQRKKGTRKRRSSEKGRICRRKVHIILARNMLRKENELYKKDAEYCQTPRAVADGCSFSTLPTI
